Experimental data taken from the MegaScale stability set (Tsuboyama et al. 2023).

B1: EHEE_rd2_0191 (parent)
chain: TTEYTFTDDEEARRAIEELKKRGLTFRYEKHGTTWRVRVD

Variants of: B1
Assay: folding stability dG (cDNA display proteolysis); higher = more stable
Conditions: PBS, room temperature

In order of rising “folding stability dG” value:
1. TTEYTFTDDEEARRAIEELKKRGLTFRREKHGTTWRVRVD [Y28R]  -0.634 kcal/mol
2. TTEYTFTDDEEARRAIEELKKRGLTFRYEKHVTTWRVRVD [G32V]  -0.186 kcal/mol
3. TTEYTFTDDEEARRAIEELKKRGLTFRYEKHITTWRVRVD [G32I]  -0.154 kcal/mol
4. TTEYTFTDDEEARRAIEELKKRGLTFRYEKHTTTWRVRVD [G32T]  -0.068 kcal/mol
5. TTEYTFTDDEEARRAIEELKKRGLTFRYEEHGTTWRVRVD [K30E]  -0.015 kcal/mol
6. TTEYTFTDDEEARRAIEELKKRGLTHRYEKHGTTWRVRVD [F26H]  0.04 kcal/mol
7. TTEYTFTDDEEARRAIEELKKRGLTFRYEKHRTTWRVRVD [G32R]  0.119 kcal/mol
8. TTEYTFTDDEEARRAIEELKKRGLTFRYEKHFTTWRVRVD [G32F]  0.367 kcal/mol
9. TTEYTFTDDEEARRAIEELKKRGLTFRYEKHSTTWRVRVD [G32S]  0.389 kcal/mol
10. TTEYTFTDDEEARRAIEELKKRGLTTRYEKHGTTWRVRVD [F26T]  0.447 kcal/mol
11. TTEYTFTDDEEARRAIEELKKRGLTFRKEKHGTTWRVRVD [Y28K]  0.466 kcal/mol
12. TTEYTFTDDEEARRAIEELKKRGLTFRYEAHGTTWRVRVD [K30A]  0.56 kcal/mol
13. TTEYTFTDDEEARRAIEELKKRGLTFRYESHGTTWRVRVD [K30S]  0.569 kcal/mol
14. TTEYTFTDDEEARRAIEELKKRGLTFRYEKHMTTWRVRVD [G32M]  0.592 kcal/mol
15. TTEYTFTDDEEARRAIEELKKRGLTFRYEKHKTTWRVRVD [G32K]  0.641 kcal/mol
16. TTEYTFTDDEEARRAIEELKKRGLTWRYEKHGTTWRVRVD [F26W]  0.681 kcal/mol
17. TTEYTFTDDEEARRAIEELKKRGLTFRYEKHHTTWRVRVD [G32H]  0.696 kcal/mol
18. TTEYTFTDDEEARRAIEELKKRGLTFRYEKHATTWRVRVD [G32A]  0.777 kcal/mol
19. TTEYTFTDDEEARRAIEELKKRGLTMRYEKHGTTWRVRVD [F26M]  0.795 kcal/mol
20. TTEYTFTDDEEARRAIEELKKRGLTFRYEKHLTTWRVRVD [G32L]  0.796 kcal/mol
21. TTEYTFTDDEEARRAIEELKKRGLTFRYEWHGTTWRVRVD [K30W]  0.819 kcal/mol
22. TTEYTFTDDEEARRAIEELKKRGLTFRYEKHQTTWRVRVD [G32Q]  0.889 kcal/mol
23. TTEYTFTDDEEARRAIEELKKRGLTFRYETHGTTWRVRVD [K30T]  0.892 kcal/mol
24. TTEYTFTDDEEARRAIEELKKRGLTFRYENHGTTWRVRVD [K30N]  0.931 kcal/mol
25. TTEYTFTDDEEARRAIEELKKRGLTARYEKHGTTWRVRVD [F26A]  0.99 kcal/mol
26. TTEYTFTDDEEARRAIEELKKRGLTFRYGKHGTTWRVRVD [E29G]  1.04 kcal/mol
27. TTEYTFTDDEEARRAIEELKKRGLTFRYEKHNTTWRVRVD [G32N]  1.1 kcal/mol
28. TTEYTFTDDEEARRAIEELKKRGLTFRYEYHGTTWRVRVD [K30Y]  1.21 kcal/mol
29. TTEYTFTDDEEARRAIEELKKRGLTFRYEFHGTTWRVRVD [K30F]  1.22 kcal/mol
30. TTEYTFTDDEEARRAIEELKKRGLTFRYEKHDTTWRVRVD [G32D]  1.34 kcal/mol
31. TTEYTFTDDEEARRAIEELKKRGLTFRYEKHETTWRVRVD [G32E]  1.35 kcal/mol
32. TTEYTFTDDEEARRAIEELKKRGLTFRYNKHGTTWRVRVD [E29N]  1.38 kcal/mol
33. TTEYTFTDDEEARRAIEELKKRGLTPRYEKHGTTWRVRVD [F26P]  1.41 kcal/mol
34. TTEYTFTDDEEARRAIEELKKRGLTFRYEMHGTTWRVRVD [K30M]  1.43 kcal/mol
35. TTEYTFTDDEEARRAIEELKKRGLTFRYEHHGTTWRVRVD [K30H]  1.51 kcal/mol
36. TTEYTFTDDEEARRAIEELKKRGLTFRYELHGTTWRVRVD [K30L]  1.54 kcal/mol
37. TTEYTFTDDEEARRAIEELKKRGLTFRYEQHGTTWRVRVD [K30Q]  1.54 kcal/mol
38. TTEYTFTDDEEARRAIEELKKRGLTLRYEKHGTTWRVRVD [F26L]  1.61 kcal/mol
39. TTEYTFTDDEEARRAIEELKKRGLTFRYDKHGTTWRVRVD [E29D]  1.7 kcal/mol
40. TTEYTFTDDEEARRAIEELKKRGLTFRYLKHGTTWRVRVD [E29L]  1.71 kcal/mol
41. TTEYTFTDDEEARRAIEELKKRGLTFRYKKHGTTWRVRVD [E29K]  1.72 kcal/mol
42. TTEYTFTDDEEARRAIEELKKRGLTYRYEKHGTTWRVRVD [F26Y]  1.73 kcal/mol
43. TTEYTFTDDEEARRAIEELKKRGLTFRYQKHGTTWRVRVD [E29Q]  1.75 kcal/mol
44. TTEYTFTDDEEARRAIEELKKRGLTFRYAKHGTTWRVRVD [E29A]  1.75 kcal/mol
45. TTEYTFTDDEEARRAIEELKKRGLTFRYRKHGTTWRVRVD [E29R]  1.77 kcal/mol
46. TTEYTFTDDEEARRAIEELKKRGLTFRYEVHGTTWRVRVD [K30V]  1.82 kcal/mol
47. TTEYTFTDDEEARRAIEELKKRGLTFRYHKHGTTWRVRVD [E29H]  1.83 kcal/mol
48. TTEYTFTDDEEARRAIEELKKRGLTFRYEIHGTTWRVRVD [K30I]  1.86 kcal/mol
49. TTEYTFTDDEEARRAIEELKKRGLTFRYMKHGTTWRVRVD [E29M]  1.94 kcal/mol
50. TTEYTFTDDEEARRAIEELKKRGLTFRYERHGTTWRVRVD [K30R]  1.99 kcal/mol
51. TTEYTFTDDEEARRAIEELKKRGLTIRYEKHGTTWRVRVD [F26I]  2.04 kcal/mol
52. TTEYTFTDDEEARRAIEELKKRGLTFRYVKHGTTWRVRVD [E29V]  2.07 kcal/mol
53. TTEYTFTDDEEARRAIEELKKRGLTFRYSKHGTTWRVRVD [E29S]  2.12 kcal/mol
54. TTEYTFTDDEEARRAIEELKKRGLTFRYIKHGTTWRVRVD [E29I]  2.13 kcal/mol
55. TTEYTFTDDEEARRAIEELKKRGLTFRWEKHGTTWRVRVD [Y28W]  2.2 kcal/mol
56. TTEYTFTDDEEARRAIEELKKRGLTFRYTKHGTTWRVRVD [E29T]  2.21 kcal/mol
57. TTEYTFTDDEEARRAIEELKKRGLTFRYFKHGTTWRVRVD [E29F]  2.35 kcal/mol
58. TTEYTFTDDEEARRAIEELKKRGLTFRYYKHGTTWRVRVD [E29Y]  2.44 kcal/mol
59. TTEYTFTDDEEARRAIEELKKRGLTFRCEKHGTTWRVRVD [Y28C]  2.52 kcal/mol
60. TTEYTFTDDEEARRAIEELKKRGLTFRYCKHGTTWRVRVD [E29C]  2.56 kcal/mol
61. TTEYTFTDDEEARRAIEELKKRGLTVRYEKHGTTWRVRVD [F26V]  2.73 kcal/mol
62. TTEYTFTDDEEARRAIEELKKRGLTFRYWKHGTTWRVRVD [E29W]  3.04 kcal/mol
